From PMC8163975 (The Journal of Biological Chemistry, 2021)

B1: RAP1B, mGppNHp-bound (natural protein, human, UniProt P61224 1-184, looked up)
chain: MREYKLVVLGSGGVGKSALTVQFVQGIFVEKYDPTIEDSYRKQVEVDAQQCMLEILDTAGTEQFTAMRDLYMKNGQGFALVYSITAQSTFNDLQDLREQILRVKDTDDVPMILVGNKCDLEDERVVGKEQGQNLARQWNNCAFLESSAKSKINVNEIFYDLVRQINRKTPVPGKARKKSSCQLL
notes: human RAP1B; Loaded with mGppNHp

Columns and labels:
Conditions in all cases: both partners purified
RAP1B, mGppNHp-bound = molecular target: B1; assay: fluorescence polarisation; increasing concentrations of the RA/RB domain as MBP fusion protein (0.002-300 µM; or MBP alone) titrated to mGppNHp-bound RAS protein (1 µM); 30 mM Tris-HCl pH 7.4, 100 mM NaCl, 5 mM MgCl2, 3 mM DTT; Kd from a quadratic ligand-binding equation
RHEB1, mGppNHp-bound = molecular target: T1, RHEB1, mGppNHp-bound (human, UniProt Q15382 1-184); assay: as above
T1 construct: human RHEB1; Loaded with mGppNHp; the discussion speaks of the RHEB G domain
T1 sequence (Q15382 whole entry): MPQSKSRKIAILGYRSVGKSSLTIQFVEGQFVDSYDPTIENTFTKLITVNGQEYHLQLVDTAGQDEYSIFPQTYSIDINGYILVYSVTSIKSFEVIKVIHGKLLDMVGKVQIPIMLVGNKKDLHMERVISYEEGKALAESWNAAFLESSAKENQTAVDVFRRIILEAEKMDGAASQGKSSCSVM

RALA, mGppNHp-bound [1] = molecular target: T2, RALA, mGppNHp-bound (human, UniProt P11233 1-206); assay: as above
T2 construct: human RALA; Loaded with mGppNHp
T2 sequence (looked up): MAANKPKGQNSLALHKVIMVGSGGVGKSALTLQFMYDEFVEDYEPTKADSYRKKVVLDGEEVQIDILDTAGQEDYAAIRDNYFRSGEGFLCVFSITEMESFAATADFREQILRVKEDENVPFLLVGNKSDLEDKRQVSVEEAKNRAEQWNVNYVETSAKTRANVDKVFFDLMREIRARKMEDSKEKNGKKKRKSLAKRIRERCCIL

RAP2A, mGppNHp-bound = molecular target: T3, RAP2A, mGppNHp-bound (human, UniProt P10114 1-183); assay: as above
T3 construct: human RAP2A; Loaded with mGppNHp
T3 sequence (looked up): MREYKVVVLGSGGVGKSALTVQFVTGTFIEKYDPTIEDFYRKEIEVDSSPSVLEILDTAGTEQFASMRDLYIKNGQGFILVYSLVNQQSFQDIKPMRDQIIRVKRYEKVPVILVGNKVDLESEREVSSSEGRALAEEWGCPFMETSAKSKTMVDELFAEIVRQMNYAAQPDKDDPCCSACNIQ

RRAS1, mGppNHp-bound [2] = molecular target: T4, RRAS1, mGppNHp-bound (human, UniProt P10301 1-218); assay: as above
T4 construct: human RRAS (RRAS1); Loaded with mGppNHp
T4 sequence (looked up): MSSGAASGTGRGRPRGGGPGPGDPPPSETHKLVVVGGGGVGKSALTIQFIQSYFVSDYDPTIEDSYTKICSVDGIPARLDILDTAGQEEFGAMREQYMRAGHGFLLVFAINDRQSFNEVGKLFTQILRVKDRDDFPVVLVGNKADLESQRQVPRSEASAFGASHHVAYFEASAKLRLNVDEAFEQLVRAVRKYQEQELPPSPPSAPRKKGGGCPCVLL

RALA, mGppNHp-bound [3] = molecular target: T2, RALA, mGppNHp-bound; assay: as above; remark: listed apart in the source
RRAS1, mGppNHp-bound [4] = molecular target: T4, RRAS1, mGppNHp-bound; assay: as above; remark: listed apart in the source
RIT1, mGppNHp-bound = molecular target: T5, RIT1, mGppNHp-bound (human, UniProt Q92963 1-219); assay: as above
T5 construct: human RIT1; Loaded with mGppNHp
T5 sequence (Q92963 whole entry): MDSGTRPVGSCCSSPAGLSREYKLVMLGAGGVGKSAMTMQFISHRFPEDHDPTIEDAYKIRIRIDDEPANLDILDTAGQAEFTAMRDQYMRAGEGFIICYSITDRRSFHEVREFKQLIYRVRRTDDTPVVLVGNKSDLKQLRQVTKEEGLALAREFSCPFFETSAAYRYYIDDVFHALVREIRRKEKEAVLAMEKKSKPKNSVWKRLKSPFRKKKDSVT

[5] = molecular target: T6, CRAF RB domain, MBP fusion protein (human, UniProt P04049 51-131); assay: as above
T6 construct: source: E. coli (pMal-c5X-His vector), purified as MBP fusion protein

RIT1•mGppNHp = molecular target: T7, RIT1•mGppNHp (human, UniProt Q92963 1-219); assay: fluorescence polarisation; increasing concentrations of RA/RB domains as MBP fusions (0.002–300 μM) added to mGppNHp-bound RAS proteins (1 μM); 30 mM Tris-HCl pH 7.4, 100 mM NaCl, 5 mM MgCl2, 3 mM DTT; quadratic ligand-binding equation
T7 construct: human RIT1; Loaded with mGppNHp
T7 sequence (Q92963 whole entry, the tested form may be a part): as the sequence (Q92963 whole entry) above

HRAS, mGppNHp-bound = molecular target: T8, HRAS, mGppNHp-bound (human, UniProt P01112-1 1-189); assay: fluorescence polarisation; increasing concentrations of the RA/RB domain as MBP fusion protein (0.002-300 µM; or MBP alone) titrated to mGppNHp-bound RAS protein (1 µM); 30 mM Tris-HCl pH 7.4, 100 mM NaCl, 5 mM MgCl2, 3 mM DTT; Kd from a quadratic ligand-binding equation
T8 construct: human HRAS; Loaded with mGppNHp, a fluorescent non-hydrolysable GTP analogue; That the RAS proteins were the pGEX (GST) constructs is surmised; also called HRAS1; p21HRAS

| Binder | Kd (RAP1B, mGppNHp-bound) | Kd (RHEB1, mGppNHp-bound) | Kd (RALA, mGppNHp-bound [1]) | Kd (RAP2A, mGppNHp-bound) | Kd (RRAS1, mGppNHp-bound [2]) | Kd (RALA, mGppNHp-bound [3]) | Kd (RRAS1, mGppNHp-bound [4]) | Kd (RIT1, mGppNHp-bound) | Kd [5] | Kd (RIT1•mGppNHp) | Kd (HRAS, mGppNHp-bound) |
| --- | --- | --- | --- | --- | --- | --- | --- | --- | --- | --- | --- |
| RASSF2 RA domain, MBP fusion protein (domain or fragment, human, UniProt P50749 176-264, looked up, RASSF2 RA domain, aa 176-264 of P50749) YNHKTSVFTPAYGSVTNVRINSTMTTPQVLKLLLNKFKIENSAEEFALYVVHTSGEKQKLKATDYPLIARILQGPCEQISKVFLMEKDQ | 67 µM | 44 µM | 167 µM | 47 µM | 122 µM | – | – | – | – | – | – |
| RASSF2-to-1 variant of the RASSF2 RA domain, MBP fusion protein (domain or fragment, human, UniProt P50749 176-264, looked up, RASSF2 RA domain (aa 176-264 of P50749, the limits of the wild-type construct) with four hotspot residues changed to those of RASSF1; source: gene synthesis (BioCat) in pMal-c5X-His vector; E. coli, purified) YNHKTSVFTPKDGSKHNVRINSTMTTPQVLKLLLNKFKIENSAEEFALYVVHTSGEKQKLKATDYPLIARILQGPCEQISKVFLMEKDQ | – | – | – | – | – | 49 µM | 100 µM | – | – | – | – |
| RASSF8 RA domain, MBP fusion protein (domain or fragment, human, UniProt Q8NHQ8 1-82, looked up, RASSF8 RA domain, aa 1-82 of Q8NHQ8) MELKVWVDGVQRIVCGVTEVTTCQEVVIALAQAIGRTGRYTLIEKWRDTERHLAPHENPIISLNKWGQYASDVQLILRRTGP | 66 µM | 102 µM | 115 µM | 67 µM | 114 µM | – | – | 76 µM | – | – | – |
| B1 | – | – | – | – | – | – | – | – | 30 µM | – | – |
| RASSF10 RA domain, MBP fusion protein (domain or fragment, human, UniProt A6NK89 4-133, looked up, RASSF10 RA domain, aa 4-133 of A6NK89) SEKKISVWICQEEKLVSGLSRRTTCSDVVRVLLEDGCRRRRRQRRSRRLGSAGDPHGPGELPEPPNEDDEDDDEALPQGMLCGPPQCYCIVEKWRGFERILPNKTRILRLWAAWGEEQENVRFVLVRSEA | 73 µM | 150 µM | – | 67 µM | 99 µM | – | – | 55 µM | – | – | – |
| RASSF7 RA domain, MBP fusion protein (domain or fragment, human, UniProt Q02833 6-89, looked up, RASSF7 RA domain, aa 6-89 of Q02833) AAMELKVWVDGIQRVVCGVSEQTTCQEVVIALAQAIGQTGRFVLVQRLREKERQLLPQECPVGAQATCGQFASDVQFVLRRTGP | 72 µM | 76 µM | 101 µM | 68 µM | 30 µM | – | – | – | – | – | – |
| RASSF7 RA domain, His-tagged MBP fusion (domain or fragment, human, UniProt Q02833 6-89, looked up, RASSF7 RAS association (RA) domain, aa 6–89 of Q02833; Cloned into pMal-c5X-His; Used in fluorescence polarisation and, coupled to Ni-NTA beads, in the pull-down; source: E. coli, purified (Ni-NTA)) AAMELKVWVDGIQRVVCGVSEQTTCQEVVIALAQAIGQTGRFVLVQRLREKERQLLPQECPVGAQATCGQFASDVQFVLRRTGP | – | – | – | – | – | – | – | – | – | 34 µM | – |
| RASSF1 RA domain, MBP fusion protein (domain or fragment, human, UniProt Q9NS23 194-288, looked up, RASSF1 RA domain, aa 194-288 of Q9NS23) RGPGRGTSVRRRTSFYLPKDAVKHLHVLSRTRAREVIEALLRKFLVVDDPRKFALFERAERHGQVYLRKLLDDEQPLRLRLLAGPSDKALSFVLK | 26 µM | 37 µM | 18 µM | 22 µM | 33 µM | – | – | 136 µM | – | – | – |
| RASSF5 RA domain, MBP fusion protein (domain or fragment, UniProt Q5EBH1 200-358, looked up, RASSF5 RA domain, aa 200-358 of Q5EBH1 as the methods print it; also called NORE1; RAPL) PPTIQEIKQKIDSYNSREKHCLGMKLSEDGTYTGFIKVHLKLRRPVTVPAGIRPQSIYDAIKEVNPAATTDKRTSFYLPLDAIKQLHISSTTTVSEVIQGLLKKFMVVDNPQKFALFKRIHKDGQVLFQKLSIADYPLYLRLLAGPDTDVLSFVLKENE | 4 µM | 46 µM | 49 µM | 2 µM | 56 µM | – | – | – | – | – | – |
| RASSF9 RA domain, MBP fusion protein (domain or fragment, human, UniProt O75901 25-119, looked up, RASSF9 RA domain, aa 25-119 of O75901) EEKEIVVWVCQEEKLVCGLTKRTTSADVIQALLEEHEATFGEKRFLLGKPSDYCIIEKWRGSERVLPPLTRILKLWKAWGDEQPNMQFVLVKADA | 74 µM | 143 µM | – | 66 µM | – | – | – | – | – | – | – |
| RASSF9 RA domain, His-tagged MBP fusion (domain or fragment, human, UniProt O75901 25-119, looked up, RASSF9 RAS association (RA) domain, aa 25–119 of O75901; Cloned into pMal-c5X-His; Used in fluorescence polarisation and, coupled to Ni-NTA beads, in the pull-down; source: E. coli, purified (Ni-NTA)) EEKEIVVWVCQEEKLVCGLTKRTTSADVIQALLEEHEATFGEKRFLLGKPSDYCIIEKWRGSERVLPPLTRILKLWKAWGDEQPNMQFVLVKADA | – | – | – | – | – | – | – | – | – | 27 µM | – |
| RASSF4 RA domain, MBP fusion protein (domain or fragment, human, UniProt Q9H2L5 174-262, looked up, RASSF4 RA domain, aa 174-262 of Q9H2L5) YNHKTSVFTPAYGSVTNVRVNSTMTTLQVLTLLLNKFRVEDGPSEFALYIVHESGERTKLKDCEYPLISRILHGPCEKIARIFLMEADL | 101 µM | 47 µM | 191 µM | 88 µM | – | – | – | 58 µM | – | – | – |
| RASSF3 RA domain, MBP fusion protein (domain or fragment, human, UniProt Q86WH2 79-187, looked up, RASSF3 RA domain, aa 79-187 of Q86WH2) YTGFIKVQMELCKPPQTSPNSGKLSPSSNGCMNTLHISSTNTVGEVIEALLKKFLVTESPAKFALYKRCHREDQVYACKLSDREHPLYLRLVAGPRTDTLSFVLREHEI | 116 µM | 64 µM | – | 100 µM | 435 µM | – | – | – | – | – | – |
| RASSF6 RA domain, MBP fusion protein (domain or fragment, human, UniProt Q6ZTQ3 218-306, looked up, RASSF6 RA domain, aa 218-306 of Q6ZTQ3) YNHETSIFIPAFESETKVRVNSNMRTEEVIKQLLQKFKIENSPQDFALHIIFATGEQRRLKKTDIPLLQRLLQGPSEKNARIFLMDKDA | 65 µM | 56 µM | – | 53 µM | 112 µM | – | – | 98 µM | – | – | 91 µM |
